Laboratory results as given in the supplement of paper PMC9170038.

Test system: MS2 coat protein
Assay: apparent KD of MS2 coat protein; designed switch direction (-1 OFF switch, 1 ON switch): -1; higher = weaker reporter binding
In short: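 Designed RNA switches with common flanks were transcribed on Illumina chips by stalled E. coli RNA polymerase and titrated with SNAP-549-labelled MS2 coat protein, from 0.7 or 1.5 nM doubling to 3 µM, in Tris-HCl pH 7.5 buffer with KCl, MgCl2, BSA, DTT, tRNA and Tween-20. Steps lasted 0.8–1.5 h (lowest) to 10–20 min (highest). Titrations ran without input, with 200 uM small-molecule ligand, or with an oligonucleotide input. Normalised cluster fluorescence was curve-fitted, and apparent KD is the per-design median over clusters.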

[1] = Eterna round: R95, input ligand: FMN 200 uM
[2] = Eterna round: R95, input ligand: microRNA oligo, concentration not stated
[3] = Eterna round: R95, input ligand: none
[4] = input ligand: microRNA oligo, concentration not stated

Row | Sequence | apparent KD of MS2 coat protein [2] | apparent KD of MS2 coat protein (input ligand: FMN 200 uM) | apparent KD of MS2 coat protein (input ligand: none) | further results
1 | GUGAAACAUGAGGAUCACCCAUGUGAGGAUAUGAUUAAGUAAUGAUGAAAGUAUAUAUUCAGAAGGCACAAUGG [Mat - Mod of JL D73] (puzzle: Exclusion 1) | 83.3 nM | – | – | apparent KD of MS2 coat protein [1]: 132 nM; apparent KD of MS2 coat protein [3]: 152 nM
2 | GUGAAACAUGAGGAUCACCCAUGUGAGGAUAUGUUUUAGUACUGCUGACAGUACAUCUAUAGAAGGCACAAUGG [JL-ex1-02] (puzzle: Exclusion 1) | 33.7 nM | – | – | –
3 | GUGAACGGAGGAUAUAUAUGGGCAGCAUACGCUGCAGCUUCACAUGAGGAUCACCCAUGUAGAAGGCUGUACAC [Mat - Exclusion 2 - Mod of Hyphema - D101] (puzzle: Exclusion 2) | 8.26 nM | – | – | –
4 | GUGAAGUGAGGAUAUAUGAGAGAGGCUGAACCGGACGAGAAGUAGAAGGCACAUGAGGAUCACCCAUGUAAGGG [JR_Exclu4_Sub024] (puzzle: Exclusion 4) | 255 nM | – | – | apparent KD of MS2 coat protein [1]: 293 nM; apparent KD of MS2 coat protein [3]: 372 nM
5 | GUGACUGAUGUCAGGAUAUCCGGUGCUAAAGUACAGGAGAAGGGACAUGAGGAUCACCCAUGUAACUUAGCCAG [BmEX4 B.7] (Eterna round: R97, puzzle: Brourd's mod of Exclusion 4) | – | 23.2 nM | 15.4 nM | –
6 | GUGAGAUAGUUAGUGGACGACAUGAGGAUCACCCAUGUGAGGGAAAUGUUGAGGAGAAAGCUUUUUGCUCGUCUUUA [JR_SV3TOV1_Sub036] (puzzle: Sensor v3, turn-off variant 1) | 87.4 nM | – | – | apparent KD of MS2 coat protein [1]: 90.8 nM; apparent KD of MS2 coat protein [3]: 119 nM
7 | GUGAGCAGACGGAGAUCCUACAUGAGGAUCACCCAUGUCUCACUAGCUUUUUGCUCGUCUUAUCCUCCUCUGUUCUC [Elimod 25 - Jieux - Sensor, turn-off variant 1] (Eterna round: R97, puzzle: Sensor, turn-off variant 1) | – | 176 nM | 201 nM | –
8 | GUGAGGCCAGUGAGGAUAUGUGUACAACUACGUGCAUAGAAGGCACAUGAGGAUCACCCAUGUGAAUUCCCAGG [Eternabot (L1) Solution 65] (Eterna round: R97, puzzle: Brourd's mod of Exclusion 4) | – | 14.7 nM | 14.4 nM | –
9 | GUGAGGUAAGGAUAUAGUAGUGAAGGUAAAAUAUGAGAAUGCUAGAAGGUACAUGAGGAUCACCCAUGUUAGGG [JR_Exclu4_Sub088] (puzzle: Exclusion 4) | 146 nM | – | – | –
10 | GUGAUACAUGAGGAUCACCCAUGUCAGGAUAUGAUACUAUGUACUUCGGUACAUAGUAUCAGAAGGGACAGUGA [Ex1-3: 4] (puzzle: Exclusion 1) | 125 nM | – | – | –
11 | GUGCAACAUGAGGAUCACCCAUGUCAGGAUAUGCGAAUUUCAUCAAAAGAUGAAAUUUGCAGAAGGGACUAUAC [Omei Ex1 A22] (Eterna round: R97, puzzle: Exclusion 1) | – | 67.4 nM | 38.5 nM | –
12 | GUGCAACAUGAGGAUCACCCAUGUGAGGAUAUGCGAAUUUCAUCAAAAGAUGAAAUUUGCAGAAGGCACAGCAC [Omei Ex1 A13] (Eterna round: R97, puzzle: Exclusion 1) | – | 20.5 nM | 15.9 nM | –
13 | GUGCCGCGAGGAUAUACAGACGGGUCCAUUACGUGUCUCGGACUUGAGGAUCACCCAAGUAGAAGGCGUCUCGG [salish99_ex2_r4_627] (Eterna round: R97, puzzle: Exclusion 2) | – | 26 nM | 27.9 nM | –
14 | GUGCGGUGAGGAUAUACGUAGGUGAAAAUCUGUGUGUUCCUACAUGAGGAUCACCCAUGUAGAAGGCAUGGCAC [LRO-Excl2-13] (puzzle: Exclusion 2) | 90.5 nM | – | – | –
15 | GUGGAGGUAGGAUAUCCGCUUCCGGACAUGAGGAUCACCCAUGUUGUUCGGAUUGGACAGGGAGAAGGGCCCACAA [Eternabot (Original) Solution 37] (Eterna round: R97, puzzle: Exclusion 5) | – | 44.9 nM | 39.3 nM | –
16 | GUGGAGUAAGGAUAUACAUGAGGAUCACCCAUGUGAGGGUAUGAGAAGGGAAUGAGAGGUAGAAGGUACGAGGA [JR_Exclu3_Sub069] (puzzle: Exclusion 3) | 106 nM | – | – | apparent KD of MS2 coat protein [1]: 108 nM; apparent KD of MS2 coat protein [3]: 186 nM
17 | GUGGCACAUGAGGAUCACCCAUGUCAGGAUAUCGUGUGUUUUUUUUCGGCCGCGCGCGCGAGAAGGGACGUCUU (puzzle: Exclusion 1) | 97.8 nM | – | – | –
18 | GUGGGUCCUCACGGUGCUACAUGAGGAUCACCCAUGUGGAUUGAGGAUAUCGUAACCCUACGGGACGAGAAGGCAGUUUACUGU [Ex NG3 #100] (Eterna round: R96, puzzle: Exclusion NG 3) | – | 48.5 nM | 23.1 nM | apparent KD of MS2 coat protein [4]: 14.7 nM
19 | GUGGGUUACAUGAGGAUCACCCAUGUAGAGUGGGAAGAGAGAUAGGAUAUGAUGUGAGAAUUAUAUUAGAAGGAUCGAGACUCG [AK ExNG3-2.5] (Eterna round: R96, puzzle: Exclusion NG 3) | – | 246 nM | 285 nM | apparent KD of MS2 coat protein [4]: 174 nM

Row | Sequence | apparent KD of MS2 coat protein [2] | apparent KD of MS2 coat protein (input ligand: FMN 200 uM) | apparent KD of MS2 coat protein (input ligand: none) | further results
20 | GUGGUACAUGAGGAUCACCCAUGUUAGGAUAUCGCGUGAGGUUUUACUUCCGCACACACGAGAAGGGACGUCUU (puzzle: Exclusion 1) | 27.7 nM | – | – | –
21 | GUGUACAGAGGAUAUACAAGAGGAGUUACGAAAGUAACUUCACAUGAGGAUCACCCAUGUAGAAGGCUGUACAC [Dot plot directed v7] (puzzle: Exclusion 2) | 21.2 nM | – | – | –
22 | GUGUACGGAGGAUAUAUGUGGGCAGGCUGACCUGCAGCUUCACAUGAGGAUCACCCAUGUAGAAGGCUGUACAC [Mat - Exclusion 2 - Mod of Hyphema - D99] (puzzle: Exclusion 2) | 20.7 nM | – | – | –
23 | GUGUACGGAGGAUAUAUGUGGGCAGGCUGACCUGCAGCUUCACAUGAGGAUCACCCAUGUAGAAGGCUGUGCAC [JL-ex2-2.08 Brourd mod] (puzzle: Exclusion 2) | 16.9 nM | – | – | –
24 | GUGUACGGAGGAUAUAUGUGGUGAGCAUACGCUCAAGCUUCACAUGAGGAUCACCCAUGUAGAAGGCUGUGCAC [JL-ex2-2.13 Brourd mod] (puzzle: Exclusion 2) | 118 nM | – | – | –
25 | GUGUACGGAGGAUAUGUAUGGGCAGGCUGACCUGCAGCUUCACAUGAGGAUCACCCAUGUAGAAGGCUGUGCAC [JL-ex2-2.09 Brourd mod] (puzzle: Exclusion 2) | 10.7 nM | – | – | –
26 | GUGUACGUAGGAUAUACAUGAGGAUCACCCAUGUGAAUAAGAUAGAAUAAGAUAAAGUGUAGAAGGACGAGUGU [Excluse me!!! 6 - Jieux - Exclusion 3] (puzzle: Exclusion 3) | 30.4 nM | – | – | –
27 | GUGUAGACAGGAUAUGCUUUGAGCAUAUGAGAGUAUGCUCUACAUGAGGAUCACCCAUGUAGAAGGGUCUACAC [LRO-Excl2-01] (puzzle: Exclusion 2) | 11 nM | – | – | –
28 | GUGUAGAUAGGAUAUGCGUGAGUCUAGCGAAGCUAGGCUCUACAUGAGGAUCACCCAUGUAGAAGGGUCUACAC [Dot plot directed A v14] (puzzle: Exclusion 2) | 17.3 nM | – | – | –
29 | GUGUAGCAAGGAUAUACAUGAGGAUCACCCAUGUGAAUAAGAUAGAAUAAGAUAAAGUGUAGAAGGUGUAGUGU [Excluse me!!! 10 - Jieux - Exclusion 3] (puzzle: Exclusion 3) | 37.2 nM | – | – | –
30 | GUGUAGUAAGGAUAUAGAAAGAGGGAGUAAGAUAGAGAGUUCUAGAAGGUACAUGAGGAUCACCCAUGUUGGAG [JR_Exclu4_Sub082] (puzzle: Exclusion 4) | 28.9 nM | – | – | apparent KD of MS2 coat protein [1]: 24.9 nM; apparent KD of MS2 coat protein [3]: 27.8 nM
31 | GUGUAGUGAGGAUAUACAUGAGGAUCACCCAUGUGAAUAAGAUAGAAUAAGAUAAAGUGUAGAAGGCACAGUGU [Excluse me!!! 3 - Jieux - Exclusion 3] (puzzle: Exclusion 3) | 35.7 nM | – | – | apparent KD of MS2 coat protein [1]: 39.5 nM; apparent KD of MS2 coat protein [3]: 41.9 nM
32 | GUGUAGUUAGGAUAUGCUGGAAUCUAGCGAAGCUAGGUUCCACAUGAGGAUCACCCAUGUAGAAGGGACUACAC [Dot plot directed A v10] (puzzle: Exclusion 2) | 168 nM | – | – | –
33 | GUGUGCACGCUGCGAUCCUACAUGAGGAUCACCCAUGUGGUCUGGUGGCGUGGGUCACCGGACUUGGCUCGUCUUGC [salish99_S_TOV1_R5_072] (Eterna round: R97, puzzle: Sensor, turn-off variant 1) | – | 35.6 nM | 35.8 nM | –
34 | GUGUGCAGACGGAGAUCCUACAUGAGGAUCACCCAUGUCUCACUAGCUUUUUGCUCGUCUUAUCCUCCUCUGUUCUC [Elimod 26 - Jieux - Sensor, turn-off variant 1] (Eterna round: R97, puzzle: Sensor, turn-off variant 1) | – | 295 nM | 497 nM | –
35 | GUGUGCAGAGGAUAUACAGAGGAAAAGAAGAAAGAAGAGGGACAUGAGGAUCACCCAUGUAGAAGGCUGAGUGU [Excluse me!! 24 - Jieux - Exclusion 2] (puzzle: Exclusion 2) | 30.4 nM | – | – | –
36 | GUGUGGCCUGUAGGAUAUGGUUCCGUUUCGGUUCCAGAAGGACACGAGGAUACAUGAGGAUCACCCAUGUGCUCGUCACUGUGC [salish99_ExNG1_r04_404] (Eterna round: R96, puzzle: Exclusion NG 1) | – | 13.2 nM | 18.2 nM | apparent KD of MS2 coat protein [4]: 11.5 nM
37 | GUGUGUUGAUUAGGAUAUGCUCUAAGCAAUCGGGCAGAAGGAGUUAGACAUGAGGAUCACCCAUGUAAAUAUCGGAUCCCAACG [Eternabot solution 17] (Eterna round: R96, puzzle: Exclusion NG 1) | – | 18.6 nM | 19.3 nM | apparent KD of MS2 coat protein [4]: 16.2 nM
